The results in this text go back to the supplement of paper PMC9732359.

± gives the uncertainty stated by the source.

The data set is described as follows: protein stability index of a GFP-peptide fusion (yeast GPS) (PSI 1-4); higher = more stable; sorted into four equal gates, so the index is relative within each strain. The procedure, abridged: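 Yeast carrying a pooled library were grown to mid-log phase in leucine-free medium. Each library plasmid expresses Cherry and has a tiled 17-residue yeast protein peptide fused downstream of GFP. Cells were sorted into four equal gates by GFP/Cherry ratio, and plasmids from each gate were PCR-amplified, Illumina-sequenced and assigned to strains by barcode. Summing, across gates, the read frequency times the gate number gave each peptide's protein stability index.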

For the sequence YPRLQDPSRELNVIIDQ [YCS4], the protein stability index reads like this: (doa10∆) 3.2 ± 0.076; (pdr5∆) 3.09 ± 0.08; (san1∆) 3.34 ± 0.052; (ubr1∆) 3.07 ± 0.082.
The matching figures for YQNQFVEFCRNINSTDK [YML103C/NUP188]: 3.04 ± 0.11, 2.76 ± 0.088, 2.6 ± 0.12 and 2.92 ± 0.049.
Turning to YQRKRLVTQHKAKYNTP [RPL5], the protein stability index by setting is: (doa10∆) 3.21 ± 0.3; (pdr5∆) 2.8 ± 0.2.
In the case of YQTKKFYDYIKERSIVV [REC8], the protein stability index by setting is: (doa10∆) 2.49 ± 0.058; (pdr5∆) 2.81 ± 0.054; (san1∆) 2.14 ± 0.058; (ubr1∆) 2.72 ± 0.047.
The matching figures for YREAPVIYRGPEPSHID [RET1]: 2.83 ± 0.22, 3.07 ± 0.23, 3.21 ± 0.16 and 3.36 ± 0.16.
The matching figures for YRFFKKISEDPVKALNE [SNF12]: 3.5 ± 0.19, 3.68 ± 0.2, 2.8 ± 0.23 and 3.52 ± 0.086.
Regarding YRFYEYIYSQETKSWIN [MED1], the protein stability index is, setting by setting: (doa10∆) 1.7 ± 0.065; (pdr5∆) 1.93 ± 0.06; (san1∆) 1.53 ± 0.11; (ubr1∆) 1.82 ± 0.042.
Consider YRRLFAKRLIHGTSTSA [CDC53], for which the protein stability index is, setting by setting: (doa10∆) 1.44 ± 0.11; (pdr5∆) 1.36 ± 0.11.
For YSNSHQMAVHIATDGGR [RET1], the protein stability index turned out to be 1.98 ± 0.071 (doa10∆), 2.95 ± 0.086 (pdr5∆), 2.35 ± 0.13 (san1∆) and 2.73 ± 0.057 (ubr1∆).
Take YSVYLIHEIRLNTLNNV [SIR3]: the protein stability index stood at 1.85 ± 0.089 (doa10∆), 1.99 ± 0.067 (pdr5∆), 2.25 ± 0.1 (san1∆) and 2.34 ± 0.048 (ubr1∆).
Consider YTAVDTAKLQMRRFILG [RPN14], for which the protein stability index is, setting by setting: (doa10∆) 1.35 ± 0.27; (pdr5∆) 1.47 ± 0.093; (san1∆) 1.55 ± 0.3; (ubr1∆) 1.25 ± 0.18.
As to YTDRDQDEVNKGPAIDE [NNF1], the protein stability index is, setting by setting: (doa10∆) 2.12 ± 0.092; (pdr5∆) 2.01 ± 0.085; (san1∆) 1.89 ± 0.13; (ubr1∆) 2.13 ± 0.14.
On the same counts, the results for YTSIVQCCEFMTMLTPN [YML103C/NUP188] are 2.13 ± 0.051, 2.03 ± 0.05, 1.95 ± 0.062 and 2 ± 0.044.
The sequence YVGNKRLELAGQLISLL [RET1] came in with a protein stability index (doa10∆) of 2.84 ± 0.083, a protein stability index (pdr5∆) of 3.25 ± 0.092, a protein stability index (san1∆) of 2.7 ± 0.074 and a protein stability index (ubr1∆) of 2.92 ± 0.079.
The matching figures for YVKDARKDTVSREVLRY [RPC40]: 3.64 ± 0.13, 3.2 ± 0.14, 3.33 ± 0.071 and 3.21 ± 0.11.
On the same counts, the results for YVPTRNTFNYDVKISND [RPN4] are 1.85 ± 0.068, 2.3 ± 0.065, 2.29 ± 0.078 and 2.25 ± 0.056.
YWKLWIDEPFNLDFDPR [FAS1] registered a protein stability index (doa10∆) of 3.52 ± 0.12, a protein stability index (pdr5∆) of 2.84 ± 0.13 and a protein stability index (ubr1∆) of 2.27 ± 0.15.
YWYFLQKLHKVKKASGE [RPL20A] came in with a protein stability index (doa10∆) of 3.1 ± 0.093, a protein stability index (pdr5∆) of 2.86 ± 0.068, a protein stability index (san1∆) of 3.13 ± 0.049 and a protein stability index (ubr1∆) of 2.97 ± 0.063.
YYSLNIDYHKTAKETKM [RPN11]: the protein stability index is, setting by setting: (doa10∆) 2.75 ± 0.067; (pdr5∆) 2.77 ± 0.072; (san1∆) 2.87 ± 0.053; (ubr1∆) 2.74 ± 0.06.
Regarding YYYYHPMNAPTPAMIPY [DSN1], the protein stability index amounted to 2.14 ± 0.047 (doa10∆), 2.39 ± 0.05 (pdr5∆), 2.49 ± 0.066 (san1∆) and 2.46 ± 0.039 (ubr1∆).
